A word on the EC50: it is the concentration needed to bring the measured effect to its halfway point. The term Kd denotes the equilibrium constant for the complex coming apart.

Consider 8 molecules from patent US20220242973A1 (Molecular Partners, published 2022).

Assay [1] concerns the target T1, Cynomolgus FAP expressed on CHO cells (cynomolgus monkey (Macaca fascicularis)).
T1 construct: whole, on cells; also called cFAP-expressing CHO cells; cynomolgus FAP+ CHO cells
Put plainly: FACS on cFAP-expressing CHO cells. Here is the method:
(§1) Using multi-well plates, 20,000 WI38 cells were added per well in 50 μl of PBS. 50 μl of appropriate dilutions (2× dilution steps) of ankyrin repeat protein was then added to the cells and incubated for 30 minutes on ice. After the ankyrin repeat protein-binding reaction, cells were washed twice with PBS. Direct immunofluorescent detection of the His-tagged ankyrin repeat proteins using Penta-His AF647 conjugate (QIAgen) and determination of live cells using LIVE/DEAD™ Fixable Green Dead Cell Stain Kit (ThermoFisher) were then performed together in one step. The Penta-His AF647 conjugate and the LIVE/DEAD™ Fixable Green dye were applied to the cells together in 1/200 (Penta-His) and 1/1000 (LID Fixable) final dilutions and incubated for 20-30 minutes on ice. After washing the cells with PBS, cells were re-suspended in 1× CellFix™ buffer (BD Biosciences) (10× stock was diluted 1/10 in water). The samples were incubated in CellFix™ buffer for 15-20 minutes at RT, then spun down at 400 g for 5 min. Supernatant was discarded and cells were re-suspended in 200 μl PBS and stored at 4° C. until acquisition and FACS analysis. Acquisition and FACS analysis, including the determination of median fluorescence intensity (MFI), were done within 5 days after staining using an AttuneNxT instrument. Binding curves were fitted by non-linear regression curve fitting using GraphPad Prism software (v 7.0.4).
A series of dilutions of ankyrin repeat proteins were added to cFAP expressing CHO cells. The binding reaction and subsequent analysis and MFI measurements were performed essentially as described in Example 3 for the WI38 cells.

Assay [2] deals with T2, Human FAP expressed on the cell surface (WI38, CHO-FAP1.9, U87MG cells) (human, UniProt Q12884 1-760).
T2 construct: whole, on cells; Endogenous on WI38 and U87MG cells; from a human FAP cDNA (OriGene) in CHO-FAP1.9 cells; also called hFAP; FAP+ cells
T2 sequence (looked up): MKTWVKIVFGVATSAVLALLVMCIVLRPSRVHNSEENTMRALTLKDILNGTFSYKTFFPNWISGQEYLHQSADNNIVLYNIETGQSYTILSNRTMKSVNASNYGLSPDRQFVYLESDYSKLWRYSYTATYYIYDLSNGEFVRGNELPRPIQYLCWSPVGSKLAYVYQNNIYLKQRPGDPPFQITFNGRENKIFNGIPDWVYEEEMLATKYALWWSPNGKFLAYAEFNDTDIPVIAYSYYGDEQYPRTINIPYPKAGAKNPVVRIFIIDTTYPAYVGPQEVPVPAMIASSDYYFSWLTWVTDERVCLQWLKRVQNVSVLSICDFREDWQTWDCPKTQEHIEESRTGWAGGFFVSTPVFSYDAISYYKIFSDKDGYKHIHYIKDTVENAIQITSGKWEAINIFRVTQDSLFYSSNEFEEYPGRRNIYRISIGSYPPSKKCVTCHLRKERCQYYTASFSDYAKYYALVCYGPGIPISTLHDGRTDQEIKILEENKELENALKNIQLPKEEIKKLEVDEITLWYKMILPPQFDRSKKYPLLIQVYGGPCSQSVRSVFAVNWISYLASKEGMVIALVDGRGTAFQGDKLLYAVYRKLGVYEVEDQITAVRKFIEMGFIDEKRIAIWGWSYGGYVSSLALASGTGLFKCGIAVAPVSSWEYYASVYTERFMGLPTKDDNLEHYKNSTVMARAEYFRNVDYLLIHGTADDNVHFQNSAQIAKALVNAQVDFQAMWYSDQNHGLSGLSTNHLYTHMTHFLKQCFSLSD
Description: FACS on FAP-expressing WI38 cells, Penta-His AF647 detection. Here is the method:
as §1
EC₅₀ values were determined using standard procedures known to the person skilled in the art. […] Table 2 provides the EC₅₀ values of selected ankyrin repeat proteins as examples.

In assay [3] the target is T3, Recombinant human FAP (fibroblast activation protein) (human, UniProt Q12884 26-760).
T3 sequence (looked up): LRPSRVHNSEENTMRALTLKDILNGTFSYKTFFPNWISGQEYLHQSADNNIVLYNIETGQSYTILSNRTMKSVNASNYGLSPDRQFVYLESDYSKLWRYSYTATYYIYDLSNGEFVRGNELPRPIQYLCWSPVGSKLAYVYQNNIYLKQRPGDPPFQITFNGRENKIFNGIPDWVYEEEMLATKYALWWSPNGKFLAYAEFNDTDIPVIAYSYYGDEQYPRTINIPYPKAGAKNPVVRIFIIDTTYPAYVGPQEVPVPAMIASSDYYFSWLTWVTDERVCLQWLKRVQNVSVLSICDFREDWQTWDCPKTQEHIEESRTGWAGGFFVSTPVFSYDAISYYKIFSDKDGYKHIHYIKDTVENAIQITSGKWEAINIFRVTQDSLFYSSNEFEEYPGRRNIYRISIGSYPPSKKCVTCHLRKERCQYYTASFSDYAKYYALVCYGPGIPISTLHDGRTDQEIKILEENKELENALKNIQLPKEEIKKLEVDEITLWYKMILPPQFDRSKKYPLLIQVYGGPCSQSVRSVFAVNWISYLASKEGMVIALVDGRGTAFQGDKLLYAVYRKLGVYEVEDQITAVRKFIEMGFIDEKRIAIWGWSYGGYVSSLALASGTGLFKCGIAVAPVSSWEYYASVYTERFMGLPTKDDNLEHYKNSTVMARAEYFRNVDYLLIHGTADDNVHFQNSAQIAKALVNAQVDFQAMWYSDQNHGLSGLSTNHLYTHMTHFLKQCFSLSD
Description: cell-based or functional assay.

In assay [4] the target is T3, Recombinant human FAP (fibroblast …). Put plainly: SPR (ProteOn), human FAP immobilized on GLC chip. The protocol: Briefly, human FAP was diluted in 10 mM Na-acetate pH 5.3 buffer and covalently immobilized on a GLC chip (BioRad) to a level of around 2000 resonance units (RU). The interaction of ankyrin repeat protein and hFAP was then measured by injecting 200 μl running buffer (PBS, pH 7.4 containing 0.005% Tween 20®) containing serial dilutions of ankyrin repeat proteins covering a concentration range between 30 nM and 0.5 nM (on-rate measurement), followed by a running buffer flow for at least 25 minutes at a constant flow rate of 100 μl/min (off-rate measurement). The regeneration was performed using 15 μl of 10 mM Glycine pH 2 followed by 15 μl of 124 mM H₃PO₄. The signals (i.e. resonance unit (RU) values) of the interspots and a reference injection (i.e. injection of running buffer only) were subtracted from the RU traces obtained after injection of ankyrin repeat protein (double-referencing). Based on the SPR traces obtained from the on-rate and off-rate measurements, the on- and off-rate of the corresponding ankyrin repeat protein—FAP interaction was determined.
Dissociation constants (KD) were calculated from the estimated on- and off-rates using standard procedures known to the person skilled in the art. […] Table 1 provides the KD values of some selected ankyrin repeat proteins as examples.

B1: DARPin® protein #19 (designed binder)
chain: MRGSHHHHHHGSYPYDVPDYAGSDLGEKLLVAALYGQDDEVRILLAAGADVNAKDQWGLTPLHKAALQGHLEIVEVLLKAGADVNAKDERGHTPLHWAARFGHLEIVEVLLKAGADVNAQDQKGYTPADLAALWGHEDIAEVLQKLN
On to B1, for which the EC50 in assay [1] is 4.1 nM; in assay [2], 0.308 nM. For the same molecule, the “FAP activity (%)” value in assay [3] amounted to 94%. Further, in assay [4], the Kd is 0.195 nM.

B2: DARPin® protein #30 (designed binder)
chain: MRGSHHHHHHGSYPYDVPDYAGSDMGKKLLEAARAGQDDEVRELLKAGADVNAKDEWGWTPLHVAAERGHLEIVEVLLKAGADVNAKDKHGVTPLHLAAWRGHLEIVEVLLKAGADVNAKDIQGLTPLHIAAHQGHLEIVEVLLKAGADVNAQDKSGKTPADLAADAGHEDIAEVLQKLN
In assay [2], B2 yielded an EC50 of 0.65 nM. For the same molecule, in assay [3], the “FAP activity (%)” value came to 101%. Besides, the Kd in assay [4] came to 7.02 nM.

B3: DARPin® protein #9 (designed binder)
chain: MRGSHHHHHHGSYPYDVPDYAGSDLGKKLLEAARAGQDDEVRILMANGADVNAFDTTGRTPLHLAALWGHLEIVEVLLKHGADVNASDWFSITPLHLAAFMGHLEIVEVLLNHGADVNAQDKFGKTAFDISIDHGNEDLAEILQKLN
In turn, B3 displayed a 50% effective concentration (EC50) in assay [2] of 0.276 nM. Besides, the “FAP activity (%)” value in assay [3] came to 115%. Besides, in assay [4], the Kd stood at 0.186 nM.

B4: DARPin® protein #18 (designed binder)
chain: MRGSHHHHHHGSYPYDVPDYAGSDLGKKLLEAARAGQDDEVRILLAAGADVNAKDVLGWTPLHLAAFEGHLEIVEVLLKAGADVNAKDKKGWTPLQLAARTGHLEIVEVLLKAGADVNAKDHIGATPLHLAAWQGHPEIVEVLLKAGADVNAQDKSGKTPADLAADAGHEDIAEVLQKLN
As for B4, the EC50 came out at 5.6 nM in assay [1] and 0.188 nM in assay [2]. For the same molecule, the “FAP activity (%)” value in assay [3] was 112%. Further, the Kd in assay [4] was found to be 0.115 nM.

B5: DARPin® protein #3 (designed binder)
chain: MRGSHHHHHHGSYPYDVPDYAGSDMGKKLLEAARAGQDDEVRILMANGADVNAFDQVGRTPLHLDALAGHLEIVEVLLKHGADVNAADMFGITPLHLAAFIGHLEIVEVLLKHGADVNAYDLDGRTPLHPAAYHGHLEIVEVLLKNGADVNAQDKFGKTAFDISIDNGNEDLAEILQKLN
Regarding B5, a half-maximal effect in assay [2] (EC50) was put at 5.72 nM. Further, in assay [3], the “FAP activity (%)” value was 116%. For the same molecule, the Kd in assay [4] was found to be 5.43 nM.

B6: DARPin® protein #26 (designed binder)
chain: MRGSHHHHHHGSYPYDVPDYAGSDLGKKLLEAARAGQDDEVRELLKAGADVNAKDEVGRTPLHLAAQIGHLEIVEVLLKAGADVNAKNRWGVTPLHVAAWVGHLEIVEVLLKAGADVNAKDQQGATPLHLAAIRGHLEIVEVLLKAGADVNAQDKSGKTPADLAADAGHEDIAEVLQKLN
Take B6: the EC50 in assay [1] is 6.1 nM; in assay [2], 0.15 nM. Moreover, the “FAP activity (%)” value in assay [3] turned out to be 106%. Further, the Kd in assay [4] stood at 0.053 nM.

B7: DARPin® protein #4 (designed binder)
chain: MRGSHHHHHHGSYPYDVPDYAGSDLGHKLLEAATQGQDDEVRILLAAGADVNAKDEHGKTPLHLAAKKGHLEIVEVLLKAGADVNAKDDWGVTPLHLAAYWGHLEIVEVLLKAGADVNAQDNDGYTPADLAATFGHEDIAEVLQKLN
Take B7: in assay [2], a half-maximal response (EC50) required 1.09 nM. In assay [3], the “FAP activity (%)” value was 111%. In addition, in assay [4], the Kd turned out to be 1.35 nM.

B8: DARPin® protein #33 (designed binder)
chain: MRGSHHHHHHGSYPYDVPDYAGSDLGKKLLEAARAGQDDEVRELLKAGADVNAKDEWGKTPLHLAAIRGHLEIVEVLLKAGADVNAKDTHGITPLHLAAFVGHLEIVEVLLKAGADVNAKDYLGRTPLHIAAAKGHLEIVEVLLKAGADVNAQDKSGKTPADLAADAGHEDIVEVLQKLN
Turning to B8, the EC50 in assay [1] worked out at 7.9 nM; in assay [2], 0.205 nM. Also, the “FAP activity (%)” value in assay [3] is 102%. Moreover, the Kd in assay [4] came out at 0.241 nM.
